{"source": "paper PMC8757444", "about": "(ACS Omega, 2021)", "proteins": {"B1": {"name": "Encapsulin from Thermotoga maritima (natural protein)", "chain": "MEFLKRSFAPLTEKQWQEIDNRAREIFKTQLYGRKFVDVEGPYGWEYAAHPLGEVEVLSDENEVVKWGLRKSLPLIELRATFTLDLWELDNLERGKPNVDLSSLEETVRKVAEFEDEVIFRGCEKSGVKGLLSFEERKIECGSTPKDLLEAIVRALSIFSKDGIEGPYTLVINTDRWINFLKEEAGHYPLEKRVEECLRGGKIITTPRIEDALVVSERGGDFKLILGQDLSIGYEDREKDAVRLFITETFTFQVVNPEALILLKF"}}, "molecular_target": "the molecule itself", "assay": "dynamic light scattering", "data": [{"protein": "B1", "values": [{"measurement": "binding result", "result": "binds"}]}]}
